# Assay results from patent publication US20240076315A1, “KHL POLYPEPTIDE, AND USE THEREOF IN PREPARATION OF TABP-EIC CELL” (priority 2021, published 2024).
# No end group written: not given here.
# What was measured:
# [1] = target: T1, cell surface antigen PSMA (Homo sapiens, UniProt Q04609); assay: Immunofluorescence detection of KHL peptide (FITC marker) on Lncap cell line; format: binding
# T1 construct: endogenous in cells; host or cells: Lncap cells (PC3 cells as low-PSMA control)
# Procedure: (§1) Immunofluorescence detection was performed on KHL peptides in Lncap cell lines with high PSMA expression and PC3 cell lines with low PSMA expression, using FITC as the fluorescent marker. The fluorescence detection of KHL peptide and Lncap cell line is shown in FIG. 1, and the fluorescence detection of KHL peptide and PC3 cell line is shown in FIG. 2.
# [2] = tested on: PC3 cell lines with low PSMA expression; assay: Immunofluorescence detection of KHL peptide (FITC marker) on PC3 cell line; format: binding; settings: FIG. 2
# Procedure: as §1
# PSMA = PSMA (Homo sapiens, UniProt Q04609); assay: Phage display peptide library (Ph.D.-12) screening for peptide binding to PSMA; settings: three rounds of panning, Ph.D.-12 phage display library
# Chain of PSMA (Q04609 whole entry, species assumed): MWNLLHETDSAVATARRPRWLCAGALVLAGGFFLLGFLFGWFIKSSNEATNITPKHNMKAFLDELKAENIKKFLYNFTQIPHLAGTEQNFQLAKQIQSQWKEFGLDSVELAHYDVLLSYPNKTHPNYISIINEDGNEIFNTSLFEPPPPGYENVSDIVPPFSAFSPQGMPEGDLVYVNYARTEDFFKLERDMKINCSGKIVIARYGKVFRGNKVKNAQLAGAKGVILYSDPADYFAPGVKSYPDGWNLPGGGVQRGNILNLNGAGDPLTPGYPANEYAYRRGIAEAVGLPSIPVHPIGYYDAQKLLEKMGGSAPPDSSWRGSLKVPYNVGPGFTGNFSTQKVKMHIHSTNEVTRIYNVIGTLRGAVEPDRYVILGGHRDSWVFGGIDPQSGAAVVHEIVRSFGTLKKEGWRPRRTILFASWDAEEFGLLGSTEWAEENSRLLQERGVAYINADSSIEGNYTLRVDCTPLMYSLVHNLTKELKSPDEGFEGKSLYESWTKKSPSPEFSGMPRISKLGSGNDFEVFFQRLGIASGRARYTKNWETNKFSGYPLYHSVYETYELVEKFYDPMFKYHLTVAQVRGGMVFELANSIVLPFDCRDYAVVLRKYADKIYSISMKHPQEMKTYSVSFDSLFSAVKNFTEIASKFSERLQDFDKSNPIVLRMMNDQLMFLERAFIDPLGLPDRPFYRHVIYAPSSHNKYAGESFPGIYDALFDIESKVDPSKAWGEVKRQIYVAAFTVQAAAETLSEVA
# Procedure: The present disclosure uses the Ph.D.-12 phage display peptide library kit to screen peptide KHL that specifically binds to PSMA.
# Random twelve peptide phage display library: 100 μL. 1.5×10^13 pfu/mL, stored in TBS solution containing 50% glycerol, complexity-2.7×10^9 transformants-28gIII sequencing primers: 5′-HOGATTGGGATTTGCTAACAAC-3′, 100 pmol, 1 pmol/μL-96 g III sequencing primer: 5′-HOCCTCATATAGTTAGCGTAGCGTAACG-3′, 100 pmol/1 pmol/μL; E. Coli ER2738 Host bacterium F′laclq Δ(lacZ) M15 proA+B+zzf:: Tn10 (TetR)/fhuA2 supE thi Δ(lac proAB) Δ(hsdMS mcrB) 5 (rk mk McrBC−): This strain is provided in the form of a bacterial culture containing 50% glycerol, non receptive cells, and stored at −70° C.; Streptavidin, freeze-dried powder 1.5 mg; Biotin: 10 mM 100 μL.
# Depending on the number and types of target molecules that need to be simultaneously selected for library selection, the selection experiment is conducted on a single sterilized polystyrene culture dish, 12 or 24 well plates, and 96 well microplates. Each target molecule is coated with at least one plate (or well), and the amount given in the following method is the amount of the 60×15 mm culture dish, the content in parentheses is the amount of the plate, and the dosage of microplate is adjusted accordingly for other medium-sized wells. However, in each case, the number of added bacteriophages is the same: 1.5×10^11 virion. […]
# T1 sequence (Q04609 whole entry): as the sequence (Q04609 whole entry, species assumed) above
sequence,measurement,setting,value
"KHLHYHSSVRYG (also: FITC label, attachment site not given here) [FITC used as the fluorescent marker in immunofluorescence]",specificity of binding of KHL to the cell surface antigen PSMA,[1]; Lncap (high PSMA) versus PC3 (low PSMA),high specificity
same,cell surface fluorescence labeled by KHL,"[1]; Lncap cell lines with high PSMA expression, FITC, FIG. 1",fluorescence displayed by KHL binding to the cell surface antigen PSMA
same,cell surface fluorescence labeled by KHL,[2],only staining of the nucleus
same,binding to PSMA found by peptide library screening,PSMA,specifically binding to PSMA
